# From patent US20170260258A1 (GENEONE LIFE SCIENCE, published 2017)
# B1: humanized antibody HzKR127-3.2 (antibody, V domains shown)
# VH: QVQLQQSGAEVKKPGASVKVSCKASGYTFTSSWMNWVRQAPGQGLEWMGRIYPGDGDTSYAQKFQGRVTMTADKSTSTVYMELSSLRSEDTAVYYCAREYAEAYWGQGTLVTVSS
# VL: DIVMTQTPLSLSVTPGQPASISCKSSQSLLYSNGKTYLNWLLQKPGQPPQRLIYLVSNRDSGVPDRFSGSGSGTDFTLKISRVEAEDVGVYYCVQGTHFPQTFGGGTKVEIKR
# What was measured:
# [1] = target: T1, GST-pre-S1 (1st to 56th amino acids) protein (hepatitis B virus, UniProt P08515 1-218 = GST); test: BLI (Octet Red), antibody captured on anti-human Fc tip, GST-pre-S1 in solution
# T1 sequence (P08515 whole entry): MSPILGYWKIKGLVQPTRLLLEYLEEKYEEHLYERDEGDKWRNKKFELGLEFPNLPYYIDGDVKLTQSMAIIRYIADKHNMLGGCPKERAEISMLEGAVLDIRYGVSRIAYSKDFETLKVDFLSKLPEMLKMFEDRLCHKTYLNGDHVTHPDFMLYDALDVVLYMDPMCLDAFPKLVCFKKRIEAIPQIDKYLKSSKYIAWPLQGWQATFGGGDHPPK
# Procedure: Thereafter, the biosensor tip was saturated with 2 μg/mL of the antibody for 10 minutes. […] The binding and separation rates were measured for 15 minutes and 30 minutes, respectively. In all the measurements, a baseline drift was corrected by subtracting a control sensor exposed to only a running buffer. The operating temperature was maintained at 30° C. The data was analyzed using a 1:1 interaction model (fitting global, Rmax unlinked by sensor) equipped with ForteBio data analysis software 7.0.
# [2] = target: T2, L1CAM on L1CAM-overexpressing human cholangiocarcinoma cells (SCK-L1) (UniProt P32004 20-1257); test: flow cytometry
# T2 construct: whole, on cells; also called L1 cell adhesion molecule
# T2 sequence (P32004 20-1257 limits assumed): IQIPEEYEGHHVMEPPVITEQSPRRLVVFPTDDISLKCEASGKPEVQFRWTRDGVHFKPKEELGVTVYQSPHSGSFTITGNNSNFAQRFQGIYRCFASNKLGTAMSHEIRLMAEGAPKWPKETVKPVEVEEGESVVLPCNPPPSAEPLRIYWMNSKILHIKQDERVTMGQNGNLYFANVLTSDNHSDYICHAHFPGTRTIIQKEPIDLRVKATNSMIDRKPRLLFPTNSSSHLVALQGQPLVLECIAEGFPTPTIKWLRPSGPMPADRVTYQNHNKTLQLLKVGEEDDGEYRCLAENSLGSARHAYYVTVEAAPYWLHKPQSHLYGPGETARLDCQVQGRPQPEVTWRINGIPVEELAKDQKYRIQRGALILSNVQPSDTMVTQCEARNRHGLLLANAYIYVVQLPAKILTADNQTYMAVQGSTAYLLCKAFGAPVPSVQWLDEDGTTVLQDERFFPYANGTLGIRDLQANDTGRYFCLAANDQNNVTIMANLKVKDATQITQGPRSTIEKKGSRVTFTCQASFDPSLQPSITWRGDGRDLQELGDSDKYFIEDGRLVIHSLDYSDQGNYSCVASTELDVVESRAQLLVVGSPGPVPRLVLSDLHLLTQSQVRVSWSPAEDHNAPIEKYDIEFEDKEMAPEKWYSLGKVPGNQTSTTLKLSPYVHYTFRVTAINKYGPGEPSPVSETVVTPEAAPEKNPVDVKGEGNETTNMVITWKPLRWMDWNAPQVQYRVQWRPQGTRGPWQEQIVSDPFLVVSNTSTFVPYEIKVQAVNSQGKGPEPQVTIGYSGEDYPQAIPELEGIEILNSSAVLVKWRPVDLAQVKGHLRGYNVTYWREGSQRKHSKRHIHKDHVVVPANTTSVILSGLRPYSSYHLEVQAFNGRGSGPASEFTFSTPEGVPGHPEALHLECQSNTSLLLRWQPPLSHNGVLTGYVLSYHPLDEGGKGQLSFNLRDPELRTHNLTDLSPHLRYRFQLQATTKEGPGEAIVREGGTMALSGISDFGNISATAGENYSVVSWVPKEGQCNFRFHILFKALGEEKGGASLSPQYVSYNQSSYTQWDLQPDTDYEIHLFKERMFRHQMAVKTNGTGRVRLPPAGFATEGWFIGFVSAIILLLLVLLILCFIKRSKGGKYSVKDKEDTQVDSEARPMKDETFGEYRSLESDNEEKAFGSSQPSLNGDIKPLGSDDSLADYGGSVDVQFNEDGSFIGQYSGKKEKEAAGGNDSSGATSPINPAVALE
# [3] = target: T1, GST-pre-S1 (1st to 56th amino acids) …; test: affinity determination (competitive ELISA / Octet Red; FIGS. 2 to 5 cited)
# [4] = target: T1, GST-pre-S1 (1st to 56th amino acids) …; test: BLI (Octet Red)
binder,measurement,setting,value
B1,Kd,[1],0.493 nM
same,koff,[1],5.32e-05 s⁻¹
same,kon,[1],108000 M⁻¹ s⁻¹
same,binding result,[2],no binding (tested: 1 µg of the antibody in 100 µL)
same,fold higher affinity than KR127,[3],2.5 fold
same,fold higher affinity than HzKR127-3.1,[4],1.6 fold
